Measurements published in the supplement of paper PMC10567573.

B1: BRF1 (parent)
chain: CTACGSVLEDNIIVSEVQFVESSG
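Note: lentivirally expressed fusions sorted by FACS into six bins by GFP to DsRed ratio, PSI derived from sequencing read proportions per bin multiplied by bin number.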

Variants of: B1
Assay: protein stability index of a GFP-peptide fusion (GPS, HEK-293T) (PSI 1-6); higher = more stable
Details: c terminus: a fixed tail appended
In the case of CTACGSVLEDNIIVSEVQFRESSG [V20R], the protein stability index is reported as 3.18. With CTACGSVLEDNIIVSEVQFKESSG [V20K] the protein stability index was 3.44. CTACGSVLEDNIIVSEVQFAESSG [V20A] showed a protein stability index of 3.65. CTACGSVLEDNIIVSEVQFHESSG [V20H] gave a protein stability index of 3.23. With CTACGSVLEDNIIVSEVQFQESSG [V20Q] the protein stability index was 3.35. In the case of CTACGSVLEDNIIVSEVQFFESSG [V20F], the protein stability index is reported as 3.15. CTACGSVLEDNIIVSEVQFDESSG [V20D] gave a protein stability index of 4.52. Work on CTACGSVLEDNIIVSEVQFSESSG [V20S] yielded a protein stability index of 4.23. For CTACGSVLEDNIIVSEVQFEESSG [V20E], the protein stability index was 3.88. CTACGSVLEDNIIVSEVQFPESSG [V20P] showed a protein stability index of 3.48. CTACGSVLEDNIIVSEVQFIESSG [V20I] showed a protein stability index of 3.11. CTACGSVLEDNIIVSEVQFLESSG [V20L] gave a protein stability index of 3.97. For CTACGSVLEDNIIVSEVQFYESSG [V20Y], the protein stability index was 2.44. For CTACGSVLEDNIIVSEVQFTESSG [V20T], the protein stability index was 3.58. For CTACGSVLEDNIIVSEVQFCESSG [V20C], the protein stability index was 2.21. With CTACGSVLEDNIIVSEVQFNESSG [V20N] the protein stability index was 2.94. Variant CTACGSVLEDNIIVSEVQFGESSG [V20G] has a protein stability index of 3.6. For CTACGSVLEDNIIVSEVQFMESSG [V20M], the protein stability index was 2.55. CTACGSVLEDNIMVSEVQFVESSG [I13M] gave a protein stability index of 3.97. Variant CTACGSVLEDNIFVSEVQFVESSG [I13F] has a protein stability index of 3.08. Work on CTACGSVLEDNIEVSEVQFVESSG [I13E] yielded a protein stability index of 4.11. CTACGSVLEDNIAVSEVQFVESSG [I13A] gave a protein stability index of 3.96. Work on CTACGSVLEDNIHVSEVQFVESSG [I13H] yielded a protein stability index of 3.84. In the case of CTACGSVLEDNIGVSEVQFVESSG [I13G], the protein stability index is reported as 3.61. Work on CTACGSVLEDNICVSEVQFVESSG [I13C] yielded a protein stability index of 4.75. Variant CTACGSVLEDNINVSEVQFVESSG [I13N] has a protein stability index of 3.79. Variant CTACGSVLEDNIPVSEVQFVESSG [I13P] has a protein stability index of 4.25. CTACGSVLEDNISVSEVQFVESSG [I13S] gave a protein stability index of 4.05. For CTACGSVLEDNIDVSEVQFVESSG [I13D], the protein stability index was 3.13. CTACGSVLEDNIKVSEVQFVESSG [I13K] gave a protein stability index of 3.89. CTACGSVLEDNIQVSEVQFVESSG [I13Q] showed a protein stability index of 4.01. Work on CTACGSVLEDNIRVSEVQFVESSG [I13R] yielded a protein stability index of 3.92. CTACGSVLEDNILVSEVQFVESSG [I13L] gave a protein stability index of 2.79. Variant CTACGSVLEDNITVSEVQFVESSG [I13T] has a protein stability index of 3.56. Variant CTACGSVLEDNIIVSEVPFVESSG [Q18P] has a protein stability index of 3.1. Variant CTACGSVLEDNIIVSEVIFVESSG [Q18I] has a protein stability index of 1.82. CTACGSVLEDNIIVSEVTFVESSG [Q18T] gave a protein stability index of 2.31. For CTACGSVLEDNIIVSEVKFVESSG [Q18K], the protein stability index was 3.27. With CTACGSVLEDNIIVSEVGFVESSG [Q18G] the protein stability index was 3.47. Variant CTACGSVLEDNIIVSEVWFVESSG [Q18W] has a protein stability index of 1.75. CTACGSVLEDNIIVSEVFFVESSG [Q18F] showed a protein stability index of 1.79. For CTACGSVLEDNIIVSEVDFVESSG [Q18D], the protein stability index was 2.89. With CTACGSVLEDNIIVSEVAFVESSG [Q18A] the protein stability index was 3.26. With CTACGSVLEDNIIVSEVEFVESSG [Q18E] the protein stability index was 3.22. In the case of CTACGSVLEDNIIVSEVMFVESSG [Q18M], the protein stability index is reported as 2.36. CTACGSVLEDNIIVSEVHFVESSG [Q18H] gave a protein stability index of 1.91. CTACGSVLEDNIIVSEVSFVESSG [Q18S] showed a protein stability index of 2.44. Variant CTACGSVLEDNIIVSEVYFVESSG [Q18Y] has a protein stability index of 1.47. In the case of CTACGSVLEDNIIVSEVCFVESSG [Q18C], the protein stability index is reported as 2.52. CTACGSVLEDNIIVSEVLFVESSG [Q18L] showed a protein stability index of 2.4. For CTACGSVLEDNIIVSEVRFVESSG [Q18R], the protein stability index was 2.42. CTACGSVLEDNIIVSEVNFVESSG [Q18N] showed a protein stability index of 2.77. CTACGSVLEDNIIVSEVVFVESSG [Q18V] showed a protein stability index of 2.01. Work on CTACGSVLEDNIIVSEVQFVENSG [S22N] yielded a protein stability index of 3.07. CTACGSVLEDNIIVSEVQFVEKSG [S22K] showed a protein stability index of 3.81. Work on CTACGSVLEDNIIVSEVQFVEPSG [S22P] yielded a protein stability index of 3.39. CTACGSVLEDNIIVSEVQFVECSG [S22C] gave a protein stability index of 1.88. Variant CTACGSVLEDNIIVSEVQFVERSG [S22R] has a protein stability index of 2.18. For CTACGSVLEDNIIVSEVQFVEISG [S22I], the protein stability index was 1.52. CTACGSVLEDNIIVSEVQFVEESG [S22E] showed a protein stability index of 3.83. Work on CTACGSVLEDNIIVSEVQFVEHSG [S22H] yielded a protein stability index of 3.06. For CTACGSVLEDNIIVSEVQFVEQSG [S22Q], the protein stability index was 3.38. CTACGSVLEDNIIVSEVQFVELSG [S22L] showed a protein stability index of 2.09. CTACGSVLEDNIIVSEVQFVEDSG [S22D] showed a protein stability index of 3.7. With CTACGSVLEDNIIVSEVQFVEMSG [S22M] the protein stability index was 2.44. For CTACGSVLEDNIIVSEVQFVEFSG [S22F], the protein stability index was 2.32. In the case of CTACGSVLEDNIIVSEVQFVEASG [S22A], the protein stability index is reported as 3.73. Variant CTACGSVLEDNIIVSEVQFVEGSG [S22G] has a protein stability index of 2.97. Work on CTACGSVLEDNYIVSEVQFVESSG [I12Y] yielded a protein stability index of 3.15. In the case of CTACGSVLEDNRIVSEVQFVESSG [I12R], the protein stability index is reported as 4.29. For CTACGSVLEDNVIVSEVQFVESSG [I12V], the protein stability index was 2.99. Variant CTACGSVLEDNSIVSEVQFVESSG [I12S] has a protein stability index of 3.95. In the case of CTACGSVLEDNQIVSEVQFVESSG [I12Q], the protein stability index is reported as 4.35. In the case of CTACGSVLEDNTIVSEVQFVESSG [I12T], the protein stability index is reported as 3.88. Work on CTACGSVLEDNWIVSEVQFVESSG [I12W] yielded a protein stability index of 2.39. In the case of CTACGSVLEDNIIVSMVQFVESSG [E16M], the protein stability index is reported as 3.11. Variant CTACGSVLEDNIIVSSVQFVESSG [E16S] has a protein stability index of 2.38. In the case of CTACGSVLEDNIIVSKVQFVESSG [E16K], the protein stability index is reported as 3.42. Variant CTACGSVLEDNIIVSIVQFVESSG [E16I] has a protein stability index of 3.35. For CTACGSVLEDNIIVSNVQFVESSG [E16N], the protein stability index was 2.9. In the case of CTACGSVLEDNIIVSFVQFVESSG [E16F], the protein stability index is reported as 2.08. Work on CTACGSVLEDNIIVSTVQFVESSG [E16T] yielded a protein stability index of 2.2. Work on CTACGSVLEDNIIVSAVQFVESSG [E16A] yielded a protein stability index of 2.66. In the case of CTACGSVLEDNIIVSPVQFVESSG [E16P], the protein stability index is reported as 3.33. For CTACGSVLEDNIIVSLVQFVESSG [E16L], the protein stability index was 3.15. With CTACGSVLEDNIIVSYVQFVESSG [E16Y] the protein stability index was 3.77. CTACGSVLEDNIIVSVVQFVESSG [E16V] showed a protein stability index of 2.58. With CTACGSVLEDNIIVSQVQFVESSG [E16Q] the protein stability index was 2.9. Work on CTACGSVLEDNIIVSCVQFVESSG [E16C] yielded a protein stability index of 3.61. Variant CTACGSVLEDNIIVSRVQFVESSG [E16R] has a protein stability index of 3.09. For CTACGSVLEDNIIVSDVQFVESSG [E16D], the protein stability index was 3.87. With CTACGSVLEDNIIVSWVQFVESSG [E16W] the protein stability index was 1.9. CTACGSVLEDNIIVSGVQFVESSG [E16G] gave a protein stability index of 3.51. CTACGSVLEDNIIVSHVQFVESSG [E16H] showed a protein stability index of 3.22.
